Common to all, as to test: EMSA
(In EMSA bound probe runs differently from free probe, usually more slowly.)

In data set [1] the target is T1, eIF4G1 (Saccharomyces cerevisiae, UniProt P39935 1-952).
T1 sequence: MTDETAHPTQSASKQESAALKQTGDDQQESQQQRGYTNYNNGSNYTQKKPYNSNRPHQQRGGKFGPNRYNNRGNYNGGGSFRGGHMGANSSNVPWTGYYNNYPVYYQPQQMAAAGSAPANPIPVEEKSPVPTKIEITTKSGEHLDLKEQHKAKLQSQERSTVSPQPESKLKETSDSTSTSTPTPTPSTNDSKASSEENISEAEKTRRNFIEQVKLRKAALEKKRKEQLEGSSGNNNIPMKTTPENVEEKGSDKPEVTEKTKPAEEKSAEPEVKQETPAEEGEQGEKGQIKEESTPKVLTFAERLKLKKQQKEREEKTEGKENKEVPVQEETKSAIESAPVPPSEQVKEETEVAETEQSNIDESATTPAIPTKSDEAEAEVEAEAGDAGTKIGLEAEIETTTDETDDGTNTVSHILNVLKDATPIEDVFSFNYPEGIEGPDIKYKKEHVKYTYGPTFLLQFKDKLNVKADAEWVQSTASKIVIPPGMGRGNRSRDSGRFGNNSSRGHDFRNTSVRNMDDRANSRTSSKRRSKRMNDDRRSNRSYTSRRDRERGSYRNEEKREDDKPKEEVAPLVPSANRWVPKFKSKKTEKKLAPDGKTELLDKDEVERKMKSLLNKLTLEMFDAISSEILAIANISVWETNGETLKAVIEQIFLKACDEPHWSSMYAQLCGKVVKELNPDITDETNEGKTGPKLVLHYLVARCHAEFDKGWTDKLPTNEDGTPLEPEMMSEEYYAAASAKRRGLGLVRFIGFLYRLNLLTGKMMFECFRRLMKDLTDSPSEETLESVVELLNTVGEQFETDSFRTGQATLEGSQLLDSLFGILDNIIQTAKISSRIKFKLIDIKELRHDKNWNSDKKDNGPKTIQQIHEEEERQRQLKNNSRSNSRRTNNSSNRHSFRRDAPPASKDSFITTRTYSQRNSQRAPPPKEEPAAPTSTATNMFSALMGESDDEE

Data set [2] concerns the target T1, eIF4G1. This is another data set of the same source.
Data set [3] concerns the target T1, eIF4G1. The source holds these as a separate data set.

Read-outs that look alike come from different tables or passages of the source.

B1: U10 in CA repeats (ssRNA)
RNA: GCACACACACACACACACACAUUUUUUUUUUCACACACACACACACACACA
Regarding B1, in the data set with eIF4G1 [1], the binding result is reported as “binds”.

In the data set with eIF4G1 [2], AAAAAAAAAAAAAAAAAAAAAAAAAAAAAAAAAAAAAAAA (ssRNA) [A40] came in with a binding signal of 17 fold weaker than U40.

In the data set with eIF4G1 [3], UUUUUUUUUUUUUUUUUUUUUUUUUUUUUUUUUUUUUUUU (ssRNA) [U40] registered a binding signal of 17 fold tighter than A40.

The values are drawn from publication PMC5558906.
